The record followed here is US20250074980A1 (BRIGHAM AND WOMEN S HOSPITAL, published 2025).

Like-named read-outs stand apart in the source and are kept apart here.

The target of assay [1] is T1, His-tagged CEACAM1 (human, UniProt P13688 35-428).
T1 construct: 45 kDa SPR analyte; also called CEACAM1-HIS; CEACAM1 analyte
T1 sequence: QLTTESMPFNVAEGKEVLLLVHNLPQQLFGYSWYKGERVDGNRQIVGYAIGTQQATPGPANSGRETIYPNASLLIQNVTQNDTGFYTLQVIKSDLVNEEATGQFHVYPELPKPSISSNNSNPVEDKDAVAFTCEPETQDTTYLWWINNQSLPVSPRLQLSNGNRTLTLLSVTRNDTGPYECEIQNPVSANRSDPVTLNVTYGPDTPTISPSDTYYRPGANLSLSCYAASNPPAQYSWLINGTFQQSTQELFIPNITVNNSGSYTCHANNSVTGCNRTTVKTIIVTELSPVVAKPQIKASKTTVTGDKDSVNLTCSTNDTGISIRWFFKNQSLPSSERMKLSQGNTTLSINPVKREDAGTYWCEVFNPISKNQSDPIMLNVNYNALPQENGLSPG
The experiment in a line: SPR single-cycle, supernatant IgG captured. An outline of the steps: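 On a Biacore T200 run at 25° C in HBS-P+ (pH 7.4), IgG captured on Protein A was probed with His-tagged CEACAM1 by single-cycle surface plasmon resonance. Fitted Kon, koff and Kd gave a relative KD referenced to the parent antibody from the same experiment. The IgG came from filtered, ELISA-quantified supernatants of HEK EBNA cells transiently transfected with PEI and harvested after 5-7 days.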

Assay [2] concerns the target T1, His-tagged CEACAM1. The experiment in a line: SPR single-cycle, supernatant IgG captured. On the procedure:
In order to assess the binding of the humanized, affinity matured reformatted lead IgGs, single-cycle kinetics analysis was performed on crude supernatants using a Biacore T200 running Biacore T200 Control Software V2.0.1 and Biacore T200 Evaluation Software V3.0. Antibodies were diluted in HBS-P+ to a final concentration of 0.5 μg/ml. At the start of each cycle, antibodies were loaded onto Fc2, Fc3 and Fc4 of the Protein A chip. IgGs were captured at a flow rate of 10 μl/min to give an immobilisation level (RL) of ˜100 RU (a level calculated to obtain a Rₘₐₓ of ˜50-150 RU once the analyte is bound). The surface was then allowed to stabilize. Single-cycle kinetics data was obtained with CEACAM1 as the analyte at a flow rate of 80 μl/min to minimize any potential mass transfer effects. Multiple repeats with the parent (VH1/Vκ8 S29A) antibody were performed to check the stability of the surface and analyte over the kinetic cycles. The signal from the reference channel Fc1 (no antibody) was subtracted from that of Fc2, Fc3 and Fc4 to correct for differences in non-specific binding to the reference surface. A three point, two-fold dilution range from 70 nM to 280 nM CEACAM1 without regeneration between each concentration was used. The signal from each antibody blank run (no CEACAM1) was subtracted to correct for differences in surface stability. The association phase for the three injections of increasing concentrations of CEACAM1 was monitored for 80 seconds each time and a single dissociation phase was measured for 150 seconds following the last injection of CEACAM1. Regeneration of the Protein A surface was conducted using two injections of 10 mM glycine-HCL pH 1.5 followed by a stabilization period of 250 seconds.
The source holds these as a separate data set.

B1: CP09B03/CP08D02 (antibody, IgG4, V domains shown)
VH: EVQLLESGGGLVQPGGSLRLSCAASGFTFNAHAISWVRQAPGKGLEWVATISSGGTYTYYPDSVKGRFTISRDNSKNTLYLQMNSLKAEDTAMYYCARHDFDYDAAWFAYWGQGTLVTVSS
VL: EIVLTQSPATLSLSPGERATLSCRANSAVSYMYWYQQKPGQAPRPWIYLTSNRATGVPARFSGSGSGTDYTLTISSLEPEDFAVYYCQQWTSFPPTFGQGTKLEIK
notes: IgG4 (S241P), kappa
Regarding B1, in assay [1], the Kd (commonly the constant that tells how readily two partners part at equilibrium) came to 290 nM; the koff (in general, the first-order rate constant of dissociation) was 0.059 s⁻¹; the kon (usually a measure of how fast the partners come together) amounted to 210000 M⁻¹ s⁻¹; the “relative KD to parent” value was 1.9.

B2: CP09E05/CP08F05 (antibody, IgG4, V domains shown)
VH: EVQLLESGGGLVQPGGSLRLSCAASGFIFSSHGMSWVRQAPGKGLEWVATISSGGTYTYYPDSVKGRFTISRDNSKNTLYLQMNSLKAEDTAMYYCARHGFDYDAAWFAYWGQGTLVTVSS
VL: EIVLTQSPATLSLSPGERATLSCRANSAVSYMYWYQQKPGQAPRPWIYLTSNRATGVPARFSGSGSGTDYTLTISSLEPEDFAVYYCQQWTSNPPTFGQGTKLEIK
notes: IgG4 (S241P), kappa
Regarding B2, in assay [1], binding was put at a Kd of 250 nM, the koff was found to be 0.034 s⁻¹, the kon is 140000 M⁻¹ s⁻¹ and the “relative KD to parent” value is 2.2.

B3: CP09B03/Vκ8 S29A (antibody, IgG4, V domains shown)
VH: EVQLLESGGGLVQPGGSLRLSCAASGFTFNAHAISWVRQAPGKGLEWVATISSGGTYTYYPDSVKGRFTISRDNSKNTLYLQMNSLKAEDTAMYYCARHDFDYDAAWFAYWGQGTLVTVSS
VL: EIVLTQSPATLSLSPGERATLSCRANSAVSYMYWYQQKPGQAPRPWIYLTSNRATGVPARFSGSGSGTDYTLTISSLEPEDFAVYYCQQWSSNPPTFGQGTKLEIK
notes: IgG4 (S241P), kappa
Consider B3, for which, in assay [1], binding was characterised by a dissociation constant (Kd) of 300 nM, the koff stood at 0.052 s⁻¹, the kon was found to be 170000 M⁻¹ s⁻¹ and the “relative KD to parent” value amounted to 1.8. For the same molecule, in assay [2], the Kd came out at 260 nM, the koff was 0.039 s⁻¹, the kon came out at 150000 M⁻¹ s⁻¹ and the “relative KD to parent” value is 2.4.

B4: CP09E05/CP08G09 (antibody, IgG4, V domains shown)
VH: EVQLLESGGGLVQPGGSLRLSCAASGFIFSSHGMSWVRQAPGKGLEWVATISSGGTYTYYPDSVKGRFTISRDNSKNTLYLQMNSLKAEDTAMYYCARHGFDYDAAWFAYWGQGTLVTVSS
VL: EIVLTQSPATLSLSPGERATLSCRANSAVSYMYWYQQKPGQAPRPWIYLTSNRATGVPARFSGSGSGTDYTLTISSLEPEDFAVYYCQQWTAFPPTFGQGTKLEIK
notes: IgG4 (S241P), kappa
Turning to B4, in assay [1], binding was put at a Kd of 320 nM, the koff turned out to be 0.043 s⁻¹, the kon turned out to be 140000 M⁻¹ s⁻¹ and the “relative KD to parent” value was determined as 1.8.

B5: CP09B03/CP08G09 (antibody, IgG4, V domains shown)
VH: EVQLLESGGGLVQPGGSLRLSCAASGFTFNAHAISWVRQAPGKGLEWVATISSGGTYTYYPDSVKGRFTISRDNSKNTLYLQMNSLKAEDTAMYYCARHDFDYDAAWFAYWGQGTLVTVSS
VL: EIVLTQSPATLSLSPGERATLSCRANSAVSYMYWYQQKPGQAPRPWIYLTSNRATGVPARFSGSGSGTDYTLTISSLEPEDFAVYYCQQWTAFPPTFGQGTKLEIK
notes: IgG4 (S241P), kappa
As to B5, in assay [1], the Kd was found to be 300 nM, the koff turned out to be 0.037 s⁻¹, the kon was 130000 M⁻¹ s⁻¹ and the “relative KD to parent” value came out at 1.9.

B6: CP09B03/CP08F05 (antibody, IgG4, V domains shown)
VH: EVQLLESGGGLVQPGGSLRLSCAASGFTFNAHAISWVRQAPGKGLEWVATISSGGTYTYYPDSVKGRFTISRDNSKNTLYLQMNSLKAEDTAMYYCARHDFDYDAAWFAYWGQGTLVTVSS
VL: EIVLTQSPATLSLSPGERATLSCRANSAVSYMYWYQQKPGQAPRPWIYLTSNRATGVPARFSGSGSGTDYTLTISSLEPEDFAVYYCQQWTSNPPTFGQGTKLEIK
notes: IgG4 (S241P), kappa
Take B6: in assay [1], the Kd came out at 150 nM, the koff worked out at 0.017 s⁻¹, the kon stood at 110000 M⁻¹ s⁻¹ and the “relative KD to parent” value was determined as 3.6.

B7: CP09E05/CP08E05 (antibody, IgG4, V domains shown)
VH: EVQLLESGGGLVQPGGSLRLSCAASGFIFSSHGMSWVRQAPGKGLEWVATISSGGTYTYYPDSVKGRFTISRDNSKNTLYLQMNSLKAEDTAMYYCARHGFDYDAAWFAYWGQGTLVTVSS
VL: EIVLTQSPATLSLSPGERATLSCRANSAVSYMYWYQQKPGQAPRPWIYLTSNRATGVPARFSGSGSGTDYTLTISSLEPEDFAVYYCQQWTTNPPTFGQGTKLEIK
notes: IgG4 (S241P), kappa
As to B7, in assay [1], the dissociation constant (Kd) stood at 200 nM, the koff worked out at 0.02 s⁻¹, the kon stood at 100000 M⁻¹ s⁻¹ and the “relative KD to parent” value came out at 2.8.

B8: CP09C02/CP08E01 (antibody, IgG4, V domains shown)
VH: EVQLLESGGGLVQPGGSLRLSCAASEFTFSDHAMSWVRQAPGKGLEWVATISSGGTYTYYPDSVKGRFTISRDNSKNTLYLQMNSLKAEDTAMYYCARHGFDYDAAWFAYWGQGTLVTVSS
VL: EIVLTQSPATLSLSPGERATLSCRANSAVSYMYWYQQKPGQAPRPWIYLTSNRATGVPARFSGSGSGTDYTLTISSLEPEDFAVYYCQQWTTFPPTFGQGTKLEIK
notes: IgG4 (S241P), kappa
As for B8, in assay [1], the Kd came to 140 nM, the koff came to 0.02 s⁻¹, the kon was determined as 140000 M⁻¹ s⁻¹ and the “relative KD to parent” value stood at 3.9.

B9: CP09B03/CP08E01 (antibody, IgG4, V domains shown)
VH: EVQLLESGGGLVQPGGSLRLSCAASGFTFNAHAISWVRQAPGKGLEWVATISSGGTYTYYPDSVKGRFTISRDNSKNTLYLQMNSLKAEDTAMYYCARHDFDYDAAWFAYWGQGTLVTVSS
VL: EIVLTQSPATLSLSPGERATLSCRANSAVSYMYWYQQKPGQAPRPWIYLTSNRATGVPARFSGSGSGTDYTLTISSLEPEDFAVYYCQQWTTFPPTFGQGTKLEIK
notes: IgG4 (S241P), kappa
On to B9, for which, in assay [1], the affinity, expressed as Kd, was 250 nM; the koff came to 0.046 s⁻¹; the kon was 180000 M⁻¹ s⁻¹; the “relative KD to parent” value stood at 2.2.

B10: CP09E05/CP08D02 (antibody, IgG4, V domains shown)
VH: EVQLLESGGGLVQPGGSLRLSCAASGFIFSSHGMSWVRQAPGKGLEWVATISSGGTYTYYPDSVKGRFTISRDNSKNTLYLQMNSLKAEDTAMYYCARHGFDYDAAWFAYWGQGTLVTVSS
VL: EIVLTQSPATLSLSPGERATLSCRANSAVSYMYWYQQKPGQAPRPWIYLTSNRATGVPARFSGSGSGTDYTLTISSLEPEDFAVYYCQQWTSFPPTFGQGTKLEIK
notes: IgG4 (S241P), kappa
As to B10, in assay [1], binding was put at a Kd of 330 nM, the koff came out at 0.074 s⁻¹, the kon worked out at 230000 M⁻¹ s⁻¹ and the “relative KD to parent” value was 1.7.

B11: CP09E05/CP08E01 (antibody, IgG4, V domains shown)
VH: EVQLLESGGGLVQPGGSLRLSCAASGFIFSSHGMSWVRQAPGKGLEWVATISSGGTYTYYPDSVKGRFTISRDNSKNTLYLQMNSLKAEDTAMYYCARHGFDYDAAWFAYWGQGTLVTVSS
VL: EIVLTQSPATLSLSPGERATLSCRANSAVSYMYWYQQKPGQAPRPWIYLTSNRATGVPARFSGSGSGTDYTLTISSLEPEDFAVYYCQQWTTFPPTFGQGTKLEIK
notes: IgG4 (S241P), kappa
On to B11, for which, in assay [1], the Kd was determined as 320 nM, the koff was determined as 0.041 s⁻¹, the kon was 130000 M⁻¹ s⁻¹ and the “relative KD to parent” value was determined as 1.7.

B12: CP09C02/CP08D02 (antibody, IgG4, V domains shown)
VH: EVQLLESGGGLVQPGGSLRLSCAASEFTFSDHAMSWVRQAPGKGLEWVATISSGGTYTYYPDSVKGRFTISRDNSKNTLYLQMNSLKAEDTAMYYCARHGFDYDAAWFAYWGQGTLVTVSS
VL: EIVLTQSPATLSLSPGERATLSCRANSAVSYMYWYQQKPGQAPRPWIYLTSNRATGVPARFSGSGSGTDYTLTISSLEPEDFAVYYCQQWTSFPPTFGQGTKLEIK
notes: IgG4 (S241P), kappa
As to B12, in assay [1], the Kd turned out to be 140 nM, the koff is 0.022 s⁻¹, the kon worked out at 160000 M⁻¹ s⁻¹ and the “relative KD to parent” value is 4.

B13: CP09C02/CP08G09 (antibody, IgG4, V domains shown)
VH: EVQLLESGGGLVQPGGSLRLSCAASEFTFSDHAMSWVRQAPGKGLEWVATISSGGTYTYYPDSVKGRFTISRDNSKNTLYLQMNSLKAEDTAMYYCARHGFDYDAAWFAYWGQGTLVTVSS
VL: EIVLTQSPATLSLSPGERATLSCRANSAVSYMYWYQQKPGQAPRPWIYLTSNRATGVPARFSGSGSGTDYTLTISSLEPEDFAVYYCQQWTAFPPTFGQGTKLEIK
notes: IgG4 (S241P), kappa
Consider B13, for which, in assay [1], the affinity, expressed as Kd, was 140 nM; the off-rate constant (koff) is 0.018 s⁻¹; the kon was determined as 130000 M⁻¹ s⁻¹; the “relative KD to parent” value turned out to be 3.9.
